Experiment in all cases: cell-based or functional assay
In assay [1] the target is endogenous glucagon receptor of primary rat hepatocytes (rat, UniProt P30082 27-485).
Assay [2] concerns the target human glucagon receptor (Glucagon-R) (human, UniProt P47871 26-477).
Assay [3] has as its target human glucagon-like peptide 1 receptor (GLP-1R) (human, UniProt P43220 24-463).
For assay [4], the target named is T1, endogenous GLP-1 receptor of a murine insulinoma cell line (murine, UniProt O35659 22-463).
T1 sequence (looked up): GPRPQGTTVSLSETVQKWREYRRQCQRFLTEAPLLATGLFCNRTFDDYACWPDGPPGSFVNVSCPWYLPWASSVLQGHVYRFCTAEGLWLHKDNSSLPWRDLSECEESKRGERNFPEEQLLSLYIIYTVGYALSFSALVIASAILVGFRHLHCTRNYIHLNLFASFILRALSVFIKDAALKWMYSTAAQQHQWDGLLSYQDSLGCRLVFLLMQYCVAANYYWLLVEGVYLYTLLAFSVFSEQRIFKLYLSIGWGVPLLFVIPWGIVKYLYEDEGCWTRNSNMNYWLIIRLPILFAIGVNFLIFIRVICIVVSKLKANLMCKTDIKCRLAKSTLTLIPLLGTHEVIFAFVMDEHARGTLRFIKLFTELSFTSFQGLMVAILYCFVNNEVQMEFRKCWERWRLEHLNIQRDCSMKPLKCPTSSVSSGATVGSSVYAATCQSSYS

Sequence of endogenous glucagon receptor of primary rat hepatocytes (P30082 27-485): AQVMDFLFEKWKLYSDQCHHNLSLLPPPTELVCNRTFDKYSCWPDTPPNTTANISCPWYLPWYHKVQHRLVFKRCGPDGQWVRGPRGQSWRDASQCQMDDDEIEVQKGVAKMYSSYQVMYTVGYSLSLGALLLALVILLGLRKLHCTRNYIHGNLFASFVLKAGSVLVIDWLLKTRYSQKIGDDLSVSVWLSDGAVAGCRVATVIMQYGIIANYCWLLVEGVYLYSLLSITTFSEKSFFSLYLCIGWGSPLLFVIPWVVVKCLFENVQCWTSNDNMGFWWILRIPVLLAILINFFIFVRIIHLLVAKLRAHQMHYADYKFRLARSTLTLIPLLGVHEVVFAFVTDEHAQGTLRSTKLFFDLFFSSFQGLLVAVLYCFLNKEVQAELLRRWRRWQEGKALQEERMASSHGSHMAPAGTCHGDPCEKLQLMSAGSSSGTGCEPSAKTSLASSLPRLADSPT
Sequence of human glucagon receptor (Glucagon-R) (P47871 26-477): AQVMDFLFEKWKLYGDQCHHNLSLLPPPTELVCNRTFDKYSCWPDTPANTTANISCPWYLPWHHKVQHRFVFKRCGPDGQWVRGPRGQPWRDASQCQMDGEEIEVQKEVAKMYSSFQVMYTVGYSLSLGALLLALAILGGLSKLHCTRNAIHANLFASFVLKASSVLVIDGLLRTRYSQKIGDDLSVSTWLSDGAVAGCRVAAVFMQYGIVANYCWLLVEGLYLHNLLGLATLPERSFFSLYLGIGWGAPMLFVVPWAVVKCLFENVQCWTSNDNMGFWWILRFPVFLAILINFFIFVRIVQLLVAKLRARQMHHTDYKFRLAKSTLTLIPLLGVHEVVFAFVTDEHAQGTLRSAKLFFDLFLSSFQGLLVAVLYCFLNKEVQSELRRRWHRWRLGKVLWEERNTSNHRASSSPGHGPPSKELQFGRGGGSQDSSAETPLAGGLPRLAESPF

B1: Compound 1: H-H-Aib-QGTFTSDYSKYLDERAAKDFIEWLE-K([17-Carboxy-heptadecanoyl]-isoGlu-GSGSGG)-A-NH2 (peptide)
peptide: HAQGTFTSDYSKYLDERAAKDFIEWLEKA
modifications: Aib (alpha-aminoisobutyric acid) at position 2; Lys 28 conjugated via its epsilon amino group to [17-Carboxy-heptadecanoyl]-isoGlu-GSGSGG; C-terminal amide (NH2); free N-terminus (R1 = H)
Consider B1, for which the “EC50 [nM] (inhibition of glycogen synthesis rate in primary rat hepatocytes)” value in assay [1] amounted to 5.6 nM. Also, the “EC50 hGCGR CHO-K1 [nM] (cAMP, AlphaScreen)” value in assay [2] was 3.6 nM. Also, the “EC50 hGLP-1R CHO-K1 [nM] (cAMP, AlphaScreen)” value in assay [3] was determined as 0.48 nM. Also, the “EC50 [nM] (cAMP in murine insulinoma cells)” value in assay [4] worked out at 0.54 nM.

These data come from patent publication US20200087372A1 (ZEALAND PHARMA A S, published 2020).
